Data published in article PMC4751646, “Red Sea Atlantis II brine pool nitrilase with unique thermostability profile and heavy metal tolerance” (BMC Biotechnology, 2016).

Test system: N#CCCC#N
Assay: purified protein
Format: biochemical, uncultured Burkholderiaceae bacterium
Conditions: 50 mM potassium phosphate pH 7.0, 40 °C, 2 mM DTT, 0-975 mM substrate

## NitraS-ATII (uncultured Burkholderiaceae bacterium)
  Km: 59.4 ± 6.8 mmol/L
  kcat: 0.472 s⁻¹
